Source: PMC4624954, “Delineating the Tes Interaction Site in Zyxin and Studying Cellular Effects of Its Disruption” (PLoS ONE, 2015)

Target: T1, Zyx FL WT-GFP (human, UniProt Q15942 1-572)
T1 sequence (looked up): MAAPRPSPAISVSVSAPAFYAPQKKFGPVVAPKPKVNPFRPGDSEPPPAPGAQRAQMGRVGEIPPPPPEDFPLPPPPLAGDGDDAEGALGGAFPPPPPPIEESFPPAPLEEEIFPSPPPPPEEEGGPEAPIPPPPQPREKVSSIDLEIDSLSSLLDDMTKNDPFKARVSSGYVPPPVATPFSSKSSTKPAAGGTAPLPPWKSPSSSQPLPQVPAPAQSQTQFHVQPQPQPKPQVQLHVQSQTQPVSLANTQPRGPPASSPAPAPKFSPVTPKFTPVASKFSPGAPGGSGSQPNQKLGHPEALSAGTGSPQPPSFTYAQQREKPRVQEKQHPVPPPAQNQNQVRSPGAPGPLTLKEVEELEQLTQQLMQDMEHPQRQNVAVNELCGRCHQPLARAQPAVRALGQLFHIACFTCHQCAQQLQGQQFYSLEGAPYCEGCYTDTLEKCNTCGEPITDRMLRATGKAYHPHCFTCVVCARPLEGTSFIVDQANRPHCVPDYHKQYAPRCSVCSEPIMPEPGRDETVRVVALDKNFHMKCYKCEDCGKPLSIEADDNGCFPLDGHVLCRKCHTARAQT
Assay: cell-based or functional assay

B1: Tes FL-GFP (natural protein, UniProt Q9UGI8 1-421, looked up)
chain: MDLENKVKKMGLGHEQGFGAPCLKCKEKCEGFELHFWRKICRNCKCGQEEHDVLLSNEEDRKVGKLFEDTKYTTLIAKLKSDGIPMYKRNVMILTNPVAAKKNVSINTVTYEWAPPVQNQALARQYMQMLPKEKQPVAGSEGAQYRKKQLAKQLPAHDQDPSKCHELSPREVKEMEQFVKKYKSEALGVGDVKLPCEMDAQGPKQMNIPGGDRSTPAAVGAMEDKSAEHKRTQYSCYCCKLSMKEGDPAIYAERAGYDKLWHPACFVCSTCHELLVDMIYFWKNEKLYCGRHYCDSEKPRCAGCDELIFSNEYTQAENQNWHLKHFCCFDCDSILAGEIYVMVNDKPVCKPCYVKNHAVVCQGCHNAIDPEVQRVTYNNFSWHASTECFLCSCCSKCLIGQKFMPVEGMVFCSVECKKRMS
quantity of Tes FL-GFP in focal adhesions of zyxin-null fibroblasts with Zyx FL WT-DsRed against the DsRed control (confocal immunofluorescence): 2 fold
